Assays:
[1] = biological target: Recombinant Msf 1-422 construct lacking amino acids 4-82 (Neisseria meningitidis strain H44/76); test: SDS-PAGE of unheated samples with Western blot; purified recombinant Msf proteins not heated before SDS-PAGE; detected with anti-Msf polyclonal antibody; bands near the trimeric molecular weight
[2] = biological target: Human vitronectin in its unfolded, activated form (human); test: ELISA; aVn coated at 74 nM; Msf constructs overlaid at 3 μM; bound Msf detected with rabbit anti-Msf polyclonal antiserum
[3] = biological target: Recombinant Msf fragment Msf 1-86 (strain H44/76) (Neisseria meningitidis strain H44/76); test: SEC; HiLoad 16/60 Superdex 200 in 50 mM Tris pH 8, 200 mM NaCl; mass from peak elution volume against protein standards
[4] = biological target: Recombinant Msf fragment Msf 1-422 (strain H44/76) (Neisseria meningitidis strain H44/76); test: as above
[5] = biological target: Msf 1-203 KIK66-68AIA (Neisseria meningitidis strain H44/76); test: SDS-PAGE of unheated samples with Western blot; purified recombinant Msf proteins not heated before SDS-PAGE; detected with anti-Msf polyclonal antibody; bands near the trimeric molecular weight
[6] = biological target: Msf 1-203 KIK66-68AIA (Neisseria meningitidis strain H44/76); test: ELISA; Msf constructs (or control protein) coated at 3 μM in carbonate buffer pH 9.6; aVn 74 nM in PBS overlaid 1 h at RT; bound aVn detected with rabbit polyclonal anti-vitronectin
[7] = biological target: Recombinant Msf fragment Msf 1-203 (strain H44/76) (Neisseria meningitidis strain H44/76); test: SEC; HiLoad 16/60 Superdex 200 in 50 mM Tris pH 8, 200 mM NaCl; mass from peak elution volume against protein standards
[8] = biological target: Recombinant Msf fragment Msf 197-422 (strain H44/76) (Neisseria meningitidis strain H44/76); test: SDS-PAGE of unheated samples with Western blot; purified recombinant Msf proteins not heated before SDS-PAGE; detected with anti-Msf polyclonal antibody; bands near the trimeric molecular weight
[9] = biological target: Msf 1-203 KK79-80AA (Neisseria meningitidis strain H44/76); test: as above
[10] = biological target: Msf 1-203 K60A (Neisseria meningitidis strain H44/76); test: as above

“Recombinant Msf 1-422 construct lacking amino acids 4-82 (domain or fragment)” was tested, and the stoichiometry N [1] was 3 and the fold reduction of binding against Msf 1-422 [2] was 4 fold.

Work on “Recombinant Msf fragment Msf 1-86 (strain H44/76) (domain or fragment)” yielded a stoichiometry N [3] of 3.

“Recombinant Msf fragment Msf 1-422 (strain H44/76) (domain or fragment)” showed a stoichiometry N [4] of 3.

Substance “Msf 1-203 KIK66-68AIA (domain or fragment)” has a stoichiometry N [5] of 3.

With “Human vitronectin in its unfolded, activated form (natural protein)” the reduction in Vn binding against Msf 1-203 [6] was 45%.

With “Recombinant Msf fragment Msf 1-203 (strain H44/76) (domain or fragment)” the stoichiometry N [7] was 3.

In the case of “Recombinant Msf fragment Msf 197-422 (strain H44/76) (domain or fragment)”, the stoichiometry N [8] is reported as 3 and the fold lower binding than Msf 1-422 [2] is reported as 6 fold.

“Msf 1-203 KK79-80AA (domain or fragment)” was tested, and the stoichiometry N [9] was 3.

Substance Msf 1-203 K60A (domain or fragment) has a stoichiometry N [10] of 3.

Source: PMC4380367
